Target: the molecule itself
Assay: native gel or EMSA

B1: long isoform of Sox5 (natural protein)
chain: not shown
  stoichiometry N: 2
